Measurements published in patent publication US20120082682A1 (GlaxoSmithKline, published 2012).
Read-outs that look alike come from different tables or passages of the source.

B1: BPC1090 (bispecific antibody, human IgG1, kappa)
heavy: not shown
light: DIVMTQSPLSLPVTPGEPASISCRSSQNIVHINGNTYLEWYLQKPGQSPRLLIYKISDRFSGVPDRFSGSGSGTDFTLKISRVEADDVGIYYCFQGSHVPWTFGQGTKLEIKRTVAAPSVFIFPPSDEQLKSGTASVVCLLNNFYPREAKVQWKVDNALQSGNSQESVTEQDSKDSTYSLSSTLTLSKADYEKHKVYACEVTHQGLSSPVTKSFNRGEC
notes: mAbdAb; dAb DOM9-155-154 with Kabat 89 G; also called 829H-(TVAAPS)2GS-154 (89G)
B2: BPC1109 (bispecific antibody, human IgG1, kappa)
heavy: not shown
light: DIVMTQSPLSLPVTPGEPASISCRSSQNIVHINGNTYLEWYLQKPGQSPRLLIYKISDRFSGVPDRFSGSGSGTDFTLKISRVEADDVGIYYCFQGSHVPWTFGQGTKLEIKRTVAAPSVFIFPPSDEQLKSGTASVVCLLNNFYPREAKVQWKVDNALQSGNSQESVTEQDSKDSTYSLSSTLTLSKADYEKHKVYACEVTHQGLSSPVTKSFNRGEC
notes: mAbdAb; dAb Kabat 89 R; also called 829H-(TVAAPS)2GS-154 (89R)
B3: BPC1118 (bispecific antibody, human IgG1, kappa)
heavy: not shown
light: DIVMTQSPLSLPVTPGEPASISCRSSQNIVHINGNTYLEWYLQKPGQSPRLLIYKISDRFSGVPDRFSGSGSGTDFTLKISRVEADDVGIYYCFQGSHVPWTFGQGTKLEIKRTVAAPSVFIFPPSDEQLKSGTASVVCLLNNFYPREAKVQWKVDNALQSGNSQESVTEQDSKDSTYSLSSTLTLSKADYEKHKVYACEVTHQGLSSPVTKSFNRGEC
notes: mAbdAb; dAb Kabat 89 F; also called 829H-(TVAAPS)2GS-154 (89F)
B4: BPC1091 (bispecific antibody, human IgG1, kappa)
heavy: not shown
light: DIVMTQSPLSLPVTPGEPASISCRSSQNIVHINGNTYLEWYLQKPGQSPRLLIYKISDRFSGVPDRFSGSGSGTDFTLKISRVEADDVGIYYCFQGSHVPWTFGQGTKLEIKRTVAAPSVFIFPPSDEQLKSGTASVVCLLNNFYPREAKVQWKVDNALQSGNSQESVTEQDSKDSTYSLSSTLTLSKADYEKHKVYACEVTHQGLSSPVTKSFNRGEC
notes: mAbdAb; dAb Kabat 89 S; also called 829H-(TVAAPS)2GS-154 (89S)
B5: BPC1094 (bispecific antibody, human IgG1, kappa)
heavy: not shown
light: DIVMTQSPLSLPVTPGEPASISCRSSQNIVHINGNTYLEWYLQKPGQSPRLLIYKISDRFSGVPDRFSGSGSGTDFTLKISRVEADDVGIYYCFQGSHVPWTFGQGTKLEIKRTVAAPSVFIFPPSDEQLKSGTASVVCLLNNFYPREAKVQWKVDNALQSGNSQESVTEQDSKDSTYSLSSTLTLSKADYEKHKVYACEVTHQGLSSPVTKSFNRGEC
notes: mAbdAb; dAb Kabat 89 A; also called 829H-(TVAAPS)2GS-154 (89A)
B6: BPC1111 (bispecific antibody, human IgG1, kappa)
heavy: not shown
light: DIVMTQSPLSLPVTPGEPASISCRSSQNIVHINGNTYLEWYLQKPGQSPRLLIYKISDRFSGVPDRFSGSGSGTDFTLKISRVEADDVGIYYCFQGSHVPWTFGQGTKLEIKRTVAAPSVFIFPPSDEQLKSGTASVVCLLNNFYPREAKVQWKVDNALQSGNSQESVTEQDSKDSTYSLSSTLTLSKADYEKHKVYACEVTHQGLSSPVTKSFNRGEC
notes: mAbdAb; dAb Kabat 89 E; also called 829H-(TVAAPS)2GS-154 (89E)
B7: BPC1095 (bispecific antibody, human IgG1, kappa)
heavy: not shown
light: DIVMTQSPLSLPVTPGEPASISCRSSQNIVHINGNTYLEWYLQKPGQSPRLLIYKISDRFSGVPDRFSGSGSGTDFTLKISRVEADDVGIYYCFQGSHVPWTFGQGTKLEIKRTVAAPSVFIFPPSDEQLKSGTASVVCLLNNFYPREAKVQWKVDNALQSGNSQESVTEQDSKDSTYSLSSTLTLSKADYEKHKVYACEVTHQGLSSPVTKSFNRGEC
notes: mAbdAb; dAb Kabat 89 T; also called 829H-(TVAAPS)2GS-154 (89T)
B8: BPC1110 (bispecific antibody, human IgG1, kappa)
heavy: not shown
light: DIVMTQSPLSLPVTPGEPASISCRSSQNIVHINGNTYLEWYLQKPGQSPRLLIYKISDRFSGVPDRFSGSGSGTDFTLKISRVEADDVGIYYCFQGSHVPWTFGQGTKLEIKRTVAAPSVFIFPPSDEQLKSGTASVVCLLNNFYPREAKVQWKVDNALQSGNSQESVTEQDSKDSTYSLSSTLTLSKADYEKHKVYACEVTHQGLSSPVTKSFNRGEC
notes: mAbdAb; dAb Kabat 89 W; also called 829H-(TVAAPS)2GS-154 (89W)
B9: BPC1114 (bispecific antibody, human IgG1, kappa)
heavy: not shown
light: DIVMTQSPLSLPVTPGEPASISCRSSQNIVHINGNTYLEWYLQKPGQSPRLLIYKISDRFSGVPDRFSGSGSGTDFTLKISRVEADDVGIYYCFQGSHVPWTFGQGTKLEIKRTVAAPSVFIFPPSDEQLKSGTASVVCLLNNFYPREAKVQWKVDNALQSGNSQESVTEQDSKDSTYSLSSTLTLSKADYEKHKVYACEVTHQGLSSPVTKSFNRGEC
notes: mAbdAb; dAb Kabat 89 N; also called 829H-(TVAAPS)2GS-154 (89N)
B10: BPC1108 (bispecific antibody, human IgG1, kappa)
heavy: not shown
light: DIVMTQSPLSLPVTPGEPASISCRSSQNIVHINGNTYLEWYLQKPGQSPRLLIYKISDRFSGVPDRFSGSGSGTDFTLKISRVEADDVGIYYCFQGSHVPWTFGQGTKLEIKRTVAAPSVFIFPPSDEQLKSGTASVVCLLNNFYPREAKVQWKVDNALQSGNSQESVTEQDSKDSTYSLSSTLTLSKADYEKHKVYACEVTHQGLSSPVTKSFNRGEC
notes: mAbdAb; dAb Kabat 89 C; also called 829H-(TVAAPS)2GS-154 (89C)
B11: BPC1116 (bispecific antibody, human IgG1, kappa)
heavy: not shown
light: DIVMTQSPLSLPVTPGEPASISCRSSQNIVHINGNTYLEWYLQKPGQSPRLLIYKISDRFSGVPDRFSGSGSGTDFTLKISRVEADDVGIYYCFQGSHVPWTFGQGTKLEIKRTVAAPSVFIFPPSDEQLKSGTASVVCLLNNFYPREAKVQWKVDNALQSGNSQESVTEQDSKDSTYSLSSTLTLSKADYEKHKVYACEVTHQGLSSPVTKSFNRGEC
notes: mAbdAb; dAb Kabat 89 V; also called 829H-(TVAAPS)2GS-154 (89V)
B12: BPC1092 (bispecific antibody, human IgG1, kappa)
heavy: not shown
light: DIVMTQSPLSLPVTPGEPASISCRSSQNIVHINGNTYLEWYLQKPGQSPRLLIYKISDRFSGVPDRFSGSGSGTDFTLKISRVEADDVGIYYCFQGSHVPWTFGQGTKLEIKRTVAAPSVFIFPPSDEQLKSGTASVVCLLNNFYPREAKVQWKVDNALQSGNSQESVTEQDSKDSTYSLSSTLTLSKADYEKHKVYACEVTHQGLSSPVTKSFNRGEC
notes: mAbdAb; dAb Kabat 89 H; also called 829H-(TVAAPS)2GS-154 (89H)
B13: BPC1117 (bispecific antibody, human IgG1, kappa)
heavy: not shown
light: DIVMTQSPLSLPVTPGEPASISCRSSQNIVHINGNTYLEWYLQKPGQSPRLLIYKISDRFSGVPDRFSGSGSGTDFTLKISRVEADDVGIYYCFQGSHVPWTFGQGTKLEIKRTVAAPSVFIFPPSDEQLKSGTASVVCLLNNFYPREAKVQWKVDNALQSGNSQESVTEQDSKDSTYSLSSTLTLSKADYEKHKVYACEVTHQGLSSPVTKSFNRGEC
notes: mAbdAb; dAb Kabat 89 I; also called 829H-(TVAAPS)2GS-154 (89I)
B14: A1D98GluL1 (antibody, human IgG1, kappa, V domains shown)
VH: QVQLVQSGAEVKKPGSSVKVSCKASGFYIKDTYMHWVRQAPGQGLEWMGTIDPANGNTKYVPKFQGRVTITADESTSTAYMELSSLRSEDTAVYYCARSIYEDYHYDDYYAMDYWGQGTLVTVSS
VL: DIVMTQSPLSLPVTPGEPASISCRSSQNIVHINGNTYLEWYLQKPGQSPRLLIYKISDRFSGVPDRFSGSGSGTDFTLKISRVEADDVGIYYCFQGSHVPWTFGQGTKLEIKR
notes: CDRH3 variant of A1L1
B15: A1S95TrpL1 (antibody, human IgG1, kappa, V domains shown)
VH: QVQLVQSGAEVKKPGSSVKVSCKASGFYIKDTYMHWVRQAPGQGLEWMGTIDPANGNTKYVPKFQGRVTITADESTSTAYMELSSLRSEDTAVYYCARWIYDDYHYDDYYAMDYWGQGTLVTVSS
VL: DIVMTQSPLSLPVTPGEPASISCRSSQNIVHINGNTYLEWYLQKPGQSPRLLIYKISDRFSGVPDRFSGSGSGTDFTLKISRVEADDVGIYYCFQGSHVPWTFGQGTKLEIKR
notes: CDRH3 variant of A1L1
B16: A1H100A AlaL1 (antibody, human IgG1, kappa, V domains shown)
VH: QVQLVQSGAEVKKPGSSVKVSCKASGFYIKDTYMHWVRQAPGQGLEWMGTIDPANGNTKYVPKFQGRVTITADESTSTAYMELSSLRSEDTAVYYCARSIYDDYAYDDYYAMDYWGQGTLVTVSS
VL: DIVMTQSPLSLPVTPGEPASISCRSSQNIVHINGNTYLEWYLQKPGQSPRLLIYKISDRFSGVPDRFSGSGSGTDFTLKISRVEADDVGIYYCFQGSHVPWTFGQGTKLEIKR
notes: CDRH3 variant of A1L1

Key:
[1] = biological target: T1, human IL-4 (recombinant E. coli-expressed) (human, UniProt P05112 25-153); experiment: Biacore T100 SPR, Protein A capture (CM5), human IL4 analyte, 1:1 fit
T1 sequence (looked up): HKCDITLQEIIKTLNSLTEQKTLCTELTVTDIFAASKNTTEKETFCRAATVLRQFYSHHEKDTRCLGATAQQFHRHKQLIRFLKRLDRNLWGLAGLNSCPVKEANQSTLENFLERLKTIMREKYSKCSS
Procedure: Purified mAbs and mAbdAb constructs were tested in a BIAcore assay to determine whether the mutation of position 89 had any effect on the binding of the dAb to IL-4.
Protein A was immobilised on a CM5 chip by primary amine coupling; this surface was used as a capture surface for the antibody molecules to be tested. […] Regeneration of the […] surface was achieved using 50 mM NaOH. The assay was run at 25° C. using HBS-EP as running buffer. The data was fitted to 1:1 model inherent to the Biacore T100 analysis software.

[2] = biological target: T1, human IL-4 (recombinant E. …); experiment: as above; remark: listed apart in the source
Procedure: Protein A was immobilised on a CM5 chip by primary amine coupling; this surface was used as a capture surface for the antibody molecules to be tested.
All binding curves were double referenced with a 0 nM injection (i.e. buffer alone). Regeneration of the Protein A surface was with 50 mM NaOH. The assay was run at 25° C. using HBS-EP as running buffer. The data was fitted to 1:1 model inherent to the Biacore T100 analysis software.

[3] = biological target: T2, human IL-13 (recombinant E. coli-expressed) (human, UniProt P35225 35-146); experiment: ProteOn XPR36 SPR, mAb (supernatant) captured on anti-human IgG, IL13 analyte, 1:1 fit
T2 construct: also called hIL-13
Procedure: The initial screen of CDRH3 mutants was carried out on the ProteOn XPR36 (Biorad). […] 3M MgCl₂ was used to regenerate the capture surface, removing the bound CDRH3 mutant antibodies ready for another cycle of capture and analyte injection. The data was fitted to the 1:1 model using the software inherent to the machine.

[4] = biological target: T2, human IL-13 (recombinant E. …); experiment: Biacore T100 SPR, mAb (supernatant) captured on anti-human IgG, IL13 analyte, 1:1 fit
Excerpt: Table 1 details the overall affinities (equilibrium dissociation constant KD) for the selected constructs from the ProteOn screen and the T100 run

T2 sequence (P35225 other isoform, or with tags, fused parts or gaps limits assumed): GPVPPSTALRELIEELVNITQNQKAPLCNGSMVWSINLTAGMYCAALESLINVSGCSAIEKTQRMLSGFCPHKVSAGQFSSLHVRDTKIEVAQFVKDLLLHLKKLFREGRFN

Binder | Kd [1] [pM] | koff [1] [s⁻¹] | kon [1] [M⁻¹ s⁻¹] | Kd [2] [pM] | koff [2] [s⁻¹] | kon [2] [M⁻¹ s⁻¹] | Kd [3] [pM] | Kd [4] [pM]
B1 | 152 | 0.000455 | 3e+06 | 96 | 0.000416 | 4.34e+06 |  | 
B2 |  |  |  | 147000 | 0.177 | 1.2e+06 |  | 
B3 |  |  |  | 405 | 0.00258 | 6.39e+06 |  | 
B4 | 244 | 0.000966 | 3.96e+06 | 168 | 0.00102 | 6.05e+06 |  | 
B5 | 1950 | 0.00373 | 1.91e+06 | 2080 | 0.00304 | 1.46e+06 |  | 
B6 | 31 | 0.000104 | 3.37e+06 | 37 | 0.000111 | 2.98e+06 |  | 
B7 | 5760 | 0.0144 | 2.5e+06 | 4690 | 0.0318 | 6.78e+06 |  | 
B8 |  |  |  | 1630 | 0.00173 | 1.07e+06 |  | 
B9 |  |  |  | 656 | 0.00255 | 3.89e+06 |  | 
B10 |  |  |  | 281 | 0.00123 | 4.38e+06 |  | 
B11 |  |  |  | 402 | 0.00274 | 6.82e+06 |  | 
B12 | 1790 | 0.00534 | 2.98e+06 | 1710 | 0.00389 | 2.27e+06 |  | 
B13 |  |  |  | 231 | 0.000913 | 3.95e+06 |  | 
B14 |  |  |  |  |  |  | 873 | 779
B15 |  |  |  |  |  |  |  | 216
B16 |  |  |  |  |  |  |  | 172
